# Reference: patent publication US20220088190A1 (published 2022)
# T1: RAS G12C peptide on HLA-A*11:01 (human)
# T1 peptide: VVVGACGVGK
# T2: RAS G12V peptide on HLA-A*03:01 (human)
# T2 peptide: VVVGAVGVGK
# T3: RAS G12V peptide on HLA-A*11:01 (human)
# T3 peptide: VVVGAVGVGK
# T4: RAS wild type peptide on HLA-A*11:01 (human)
# T4 peptide: VVVGAGGVGK
# T5: RAS G12D peptide on HLA-A*11:01 (human)
# T5 peptide: VVGADGVGK
# T6: RAS wild type peptide on HLA-A*11:01 (human)
# T6 peptide: VVGAGGVGK
# T7: RAS G12C peptide on HLA-A*11:01 (human)
# T7 peptide: VVGACGVGK
# T8: RAS G12V peptide on HLA-A*11:01 (human)
# T8 peptide: VVGAVGVGK
# T9: RAS G12D peptide on HLA-A*03:01 (human)
# T9 peptide: VVVGADGVGK
# T10: RAS G12R peptide on HLA-A*03:01 (human)
# T10 peptide: VVVGARGVGK
# T11: RAS G12C peptide on HLA-A*03:01 (human)
# T11 peptide: VVVGACGVGK
# T12: RAS wild type peptide on HLA-A*03:01 (human)
# T12 peptide: VVVGAGGVGK
# T13: RAS G12V peptide on HLA-B*07:02 (human)
# T13 peptide: GAVGVGKSAL
# T14: RAS G12C peptide on HLA-B*07:02 (human)
# T14 peptide: GACGVGKSAL
# T15: RAS G12D peptide on HLA-B*07:02 (human)
# T15 peptide: GADGVGKSAL
# T16: RAS G12R peptide on HLA-B*07:02 (human)
# T16 peptide: GARGVGKSAL
# T17: RAS wild type peptide on HLA-B*07:02 (human)
# T17 peptide: GAGGVGKSAL
# Columns and labels:
# [1] = target: T1, RAS G12C peptide on HLA-A*11:01; experiment: activation reporter or marker
# [2] = target: T2, RAS G12V peptide on HLA-A*03:01; experiment: cytokine release
# [3] = target: T3, RAS G12V peptide on HLA-A*11:01; experiment: multimer staining
# [4] = target: T4, RAS wild type peptide on HLA-A*11:01; experiment: killing
# [5] = target: T5, RAS G12D peptide on HLA-A*11:01; experiment: activation reporter or marker
# [6] = target: T6, RAS wild type peptide on HLA-A*11:01; experiment: activation reporter or marker
# [7] = target: T7, RAS G12C peptide on HLA-A*11:01; experiment: activation reporter or marker
# [8] = target: T8, RAS G12V peptide on HLA-A*11:01; experiment: multimer staining
# [9] = target: T9, RAS G12D peptide on HLA-A*03:01; experiment: activation reporter or marker
# [10] = target: T10, RAS G12R peptide on HLA-A*03:01; experiment: activation reporter or marker
# [11] = target: T11, RAS G12C peptide on HLA-A*03:01; experiment: activation reporter or marker
# [12] = target: T2, RAS G12V peptide on HLA-A*03:01; experiment: multimer staining
# [13] = target: T12, RAS wild type peptide on HLA-A*03:01; experiment: killing
# [14] = target: T13, RAS G12V peptide on HLA-B*07:02; experiment: activation reporter or marker
# [15] = target: T14, RAS G12C peptide on HLA-B*07:02; experiment: activation reporter or marker
# [16] = target: T15, RAS G12D peptide on HLA-B*07:02; experiment: activation reporter or marker
# [17] = target: T16, RAS G12R peptide on HLA-B*07:02; experiment: multimer staining
# [18] = target: T17, RAS wild type peptide on HLA-B*07:02; experiment: killing
# [19] = target: T17, RAS wild type peptide on HLA-B*07:02; experiment: activation reporter or marker
binding result [1],binding result [2],binding result [3],binding result [14],binding result [15],binding result [16],binding result [17],Binder,binding result [4],other results
recognises,no recognition,recognises,,,,,"TCR833 (TCR, V domains shown) Valpha: RKEVEQDPGPFNVPEGATVAFNCTYSNSASQSFFWYRQDCRKEPKLLMSVYSSGNEDGRFTAQLNRASQYISLLIRDSKLSDSATYLCAVNPPDTGFQKLVFGTGTRLLVSP Vbeta: DVKVTQSSRYLVKRTGEKVFLECVQDMDHENMFWYRQDPGLGLRLIYFSYDVKMKEKGDIPEGYSVSREKKERFSLILESASTNQTSMYLCASSLSFRQGLREQYFGPGTRLTVT",no recognition,
,,,,,,,"TCR897 (TCR, V domains shown) Valpha: SQQGEEDPQALSIQEGENATMNCSYKTSINNLQWYRQNSGRGLVHLILIRSNEREKHSGRLRVTLDTSKKSSSLLITASRAADTASYFCATDPGGFKTIFGAGTRLFVKA Vbeta: EAGVAQSPRYKIIEKRQSVAFWCNPISGHATLYWYQQILGQGPKLLIQFQNNGVVDDSQLPKDRFSAERLKGVDSTLKIQPAKLEDSAVYLCASSLYGGSISYEQYFGPGTRLTVT",,binding result [5]: recognises; binding result [6]: no recognition; binding result [7]: recognises; binding result [8]: recognises
,,,,,,,"TCR896 (TCR, V domains shown) Valpha: AQKVTQAQTEISVVEKEDVTLDCVYETRDTTYYLFWYKQPPSGELVFLIRRNSFDEQNEISGRYSWNFQKSTSSFNFTITASQVVDSAVYFCALSEAGTYKYIFGTGTRLKVLA Vbeta: DSGVTQTPKHLITATGQRVTLRCSPRSGDLSVYWYQQSLDQGLQFLIQYYNGEERAKGNILERFSAQQFPDLHSELNLSSLELGDSALYFCASSVAGGGQETQYFGPGTRLLVL",,binding result [9]: no recognition; binding result [10]: no recognition; binding result [11]: no recognition; binding result [12]: recognises; binding result [13]: no recognition
recognises,no recognition,recognises,,,,,"TCR831 (TCR, V domains shown) Valpha: ELKVEQNPLFLSMQEGKNYTIYCNYSTTSDRLYWYRQDPGKSLESLFVLLSNGAVKQEGRLMASLDTKARLSTLHITAAVHDLSATYFCAVDKDGGYQKVTFGTGTKLQVIP Vbeta: GAVVSQHPSWVICKSGTSVKIECRSLDFQATTMFWYRQFPKQSLMLMATSNEGSKATYEQGVEKDKFLINHASLTLSTLTVTSAHPEDSSFYICSASPRAGQLSSYNSPLHFGNGTRLTVT",no recognition,
,,,no recognition,no recognition,no recognition,recognises,"TCR864 (TCR, V domains shown) Valpha: LAKTTQPISMDSYEGQEVNITCSHNNIATNDYITWYQQFPSQGPRFIIQGYKTKVTNEVASLFIPADRKSSTLSLPRVSLSDTAVYYCLVGDFNSNSGYALNFGKGTSLLVTP Vbeta: GAGVSQSPSNKVTEKGKDVELRCDPISGHTALYWYRQRLGQGLEFLIYFQGNSAPDKSGLPSDRFSAERTGESVSTLTIQRTQQEDSAVYLCASKVYGYTFGSGTRLTVV",,binding result [18]: no recognition
,,,no recognition,no recognition,no recognition,recognises,"TCR847 (TCR, V domains shown) Valpha: SQQGEEDPQALSIQEGENATMNCSYKTSINNLQWYRQNSGRGLVHLILIRSNEREKHSGRLRVTLDTSKKSSSLLITASRAADTASYFCATFPNFGNEKLTFGTGTRLTIIP Vbeta: DAGITQSPRHKVTETGTPVTLRCHQTENHRYMYWYRQDPGHGLRLIHYSYGVKDTDKGEVSDGYSVSRSKTEDFLLTLESATSSQTSVYFCAISESERYYEQYFGPGTRLTVT",,binding result [19]: no recognition
